Laboratory results reported in patent US20140087995A1 (published 2014).
Numbered stars: 1 amine (or outer) side, 2 acyl side, 3 side chain; on linkers, the order of the positions; unused ones are H or OH. Bridge positions count the residues as written; N and C are the ends. * marks the point of attachment. C20 diacid = O=C(O)CCCCCCCCCCCCCCCCCCC(=O)*; γGlu = O=C(O)[C@H](CCC(=O)[*:2])N[*:1]

T1: human calcitonin receptor (human, UniProt P30988 25-474)
T1 sequence (looked up): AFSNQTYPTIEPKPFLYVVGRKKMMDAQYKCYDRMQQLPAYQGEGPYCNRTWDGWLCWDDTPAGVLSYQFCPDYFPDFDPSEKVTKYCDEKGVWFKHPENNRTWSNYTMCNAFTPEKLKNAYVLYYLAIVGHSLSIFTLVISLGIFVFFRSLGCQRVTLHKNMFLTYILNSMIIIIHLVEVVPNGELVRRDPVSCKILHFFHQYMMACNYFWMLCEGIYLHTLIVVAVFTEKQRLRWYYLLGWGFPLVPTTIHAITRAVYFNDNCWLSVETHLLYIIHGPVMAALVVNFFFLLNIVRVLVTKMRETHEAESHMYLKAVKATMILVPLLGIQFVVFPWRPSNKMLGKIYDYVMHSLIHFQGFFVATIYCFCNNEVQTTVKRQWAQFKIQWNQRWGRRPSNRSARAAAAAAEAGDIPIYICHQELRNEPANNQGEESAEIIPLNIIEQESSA

T2: human amylin receptor (amylin 3(a) receptor: human calcitonin receptor with RAMP-3) (human, UniProt P30988 25-474; O60896 24-148)
T2 sequence (looked up) 1: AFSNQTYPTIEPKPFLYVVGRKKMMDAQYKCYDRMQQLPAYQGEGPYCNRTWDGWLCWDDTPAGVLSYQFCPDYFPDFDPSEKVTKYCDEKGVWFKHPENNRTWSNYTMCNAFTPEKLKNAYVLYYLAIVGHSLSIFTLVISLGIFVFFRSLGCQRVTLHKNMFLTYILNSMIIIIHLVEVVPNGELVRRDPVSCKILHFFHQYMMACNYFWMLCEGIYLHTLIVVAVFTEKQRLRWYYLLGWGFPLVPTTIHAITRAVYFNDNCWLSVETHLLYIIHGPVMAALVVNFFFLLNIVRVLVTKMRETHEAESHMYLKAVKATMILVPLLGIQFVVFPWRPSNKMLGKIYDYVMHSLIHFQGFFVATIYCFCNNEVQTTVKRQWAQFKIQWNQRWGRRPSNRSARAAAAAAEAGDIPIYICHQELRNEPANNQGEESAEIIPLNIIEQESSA
T2 sequence (looked up) 2: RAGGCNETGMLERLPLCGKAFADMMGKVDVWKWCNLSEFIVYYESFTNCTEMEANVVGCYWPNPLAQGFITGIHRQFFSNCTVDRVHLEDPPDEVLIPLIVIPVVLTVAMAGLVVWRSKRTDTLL


Experiments:
[1] = biological target: T1, human calcitonin receptor; test: cell-based or functional assay
[2] = biological target: T2, human amylin receptor (amylin 3(a) …); test: cell-based or functional assay

Ratio hCT/hAmylin funct. [1] | hCTR funct. EC50 [1] [nM] | hAmylin-R funct. EC50 [2] [nM] | Binder
4 | 0.372 | 0.092 | {C20 diacid-γGlu}-KCNTATCATQRLAEFLRHSSPNFGAIPSPTNVGSNTY-NH2 (disulfide 2-7; SMILES CC[C@H](C)[C@H](NC(=O)[C@H](C)NC(=O)CNC(=O)[C@H](Cc1ccccc1)NC(=O)[C@H](CC(N)=O)NC(=O)[C@@H]1CCCN1C(=O)[C@H](CO)NC(=O)[C@H](CO)NC(=O)[C@H](Cc1c[nH]cn1)NC(=O)[C@H](CCCNC(=N)N)NC(=O)[C@H](CC(C)C)NC(=O)[C@H](Cc1ccccc1)NC(=O)[C@H](CCC(=O)O)NC(=O)[C@H](C)NC(=O)[C@H](CC(C)C)NC(=O)[C@H](CCCNC(=N)N)NC(=O)[C@H](CCC(N)=O)NC(=O)[C@@H](NC(=O)[C@H](C)NC(=O)[C@@H]1CSSC[C@H](NC(=O)[C@H](CCCCN)NC(=O)CC[C@H](NC(=O)CCCCCCCCCCCCCCCCCCC(=O)O)C(=O)O)C(=O)N[C@@H](CC(N)=O)C(=O)N[C@@H]([C@@H](C)O)C(=O)N[C@@H](C)C(=O)N[C@@H]([C@@H](C)O)C(=O)N1)[C@@H](C)O)C(=O)N1CCC[C@H]1C(=O)N[C@@H](CO)C(=O)N1CCC[C@H]1C(=O)N[C@H](C(=O)N[C@@H](CC(N)=O)C(=O)N[C@H](C(=O)NCC(=O)N[C@@H](CO)C(=O)N[C@@H](CC(N)=O)C(=O)N[C@H](C(=O)N[C@@H](Cc1ccc(O)cc1)C(N)=O)[C@@H](C)O)C(C)C)[C@@H](C)O, also called compound 37)
6.4 | 0.717 | 0.112 | {C20 diacid-γGlu}-KCNTATCATQRLAEFLRHSSPNFGAIPSSTPVGSNTY-NH2 (disulfide 2-7; SMILES CC[C@H](C)[C@H](NC(=O)[C@H](C)NC(=O)CNC(=O)[C@H](Cc1ccccc1)NC(=O)[C@H](CC(N)=O)NC(=O)[C@@H]1CCCN1C(=O)[C@H](CO)NC(=O)[C@H](CO)NC(=O)[C@H](Cc1c[nH]cn1)NC(=O)[C@H](CCCNC(=N)N)NC(=O)[C@H](CC(C)C)NC(=O)[C@H](Cc1ccccc1)NC(=O)[C@H](CCC(=O)O)NC(=O)[C@H](C)NC(=O)[C@H](CC(C)C)NC(=O)[C@H](CCCNC(=N)N)NC(=O)[C@H](CCC(N)=O)NC(=O)[C@@H](NC(=O)[C@H](C)NC(=O)[C@@H]1CSSC[C@H](NC(=O)[C@H](CCCCN)NC(=O)CC[C@H](NC(=O)CCCCCCCCCCCCCCCCCCC(=O)O)C(=O)O)C(=O)N[C@@H](CC(N)=O)C(=O)N[C@@H]([C@@H](C)O)C(=O)N[C@@H](C)C(=O)N[C@@H]([C@@H](C)O)C(=O)N1)[C@@H](C)O)C(=O)N1CCC[C@H]1C(=O)N[C@@H](CO)C(=O)N[C@@H](CO)C(=O)N[C@H](C(=O)N1CCC[C@H]1C(=O)N[C@H](C(=O)NCC(=O)N[C@@H](CO)C(=O)N[C@@H](CC(N)=O)C(=O)N[C@H](C(=O)N[C@@H](Cc1ccc(O)cc1)C(N)=O)[C@@H](C)O)C(C)C)[C@@H](C)O, also called compound 31)
12.6 | 1.68 | 0.134 | {C20 diacid-γGlu}-KCNTATCATQRLAHFLRHSSPNFGAIPSSTNVGSETY-NH2 (disulfide 2-7; SMILES CC[C@H](C)[C@H](NC(=O)[C@H](C)NC(=O)CNC(=O)[C@H](Cc1ccccc1)NC(=O)[C@H](CC(N)=O)NC(=O)[C@@H]1CCCN1C(=O)[C@H](CO)NC(=O)[C@H](CO)NC(=O)[C@H](Cc1c[nH]cn1)NC(=O)[C@H](CCCNC(=N)N)NC(=O)[C@H](CC(C)C)NC(=O)[C@H](Cc1ccccc1)NC(=O)[C@H](Cc1c[nH]cn1)NC(=O)[C@H](C)NC(=O)[C@H](CC(C)C)NC(=O)[C@H](CCCNC(=N)N)NC(=O)[C@H](CCC(N)=O)NC(=O)[C@@H](NC(=O)[C@H](C)NC(=O)[C@@H]1CSSC[C@H](NC(=O)[C@H](CCCCN)NC(=O)CC[C@H](NC(=O)CCCCCCCCCCCCCCCCCCC(=O)O)C(=O)O)C(=O)N[C@@H](CC(N)=O)C(=O)N[C@@H]([C@@H](C)O)C(=O)N[C@@H](C)C(=O)N[C@@H]([C@@H](C)O)C(=O)N1)[C@@H](C)O)C(=O)N1CCC[C@H]1C(=O)N[C@@H](CO)C(=O)N[C@@H](CO)C(=O)N[C@H](C(=O)N[C@@H](CC(N)=O)C(=O)N[C@H](C(=O)NCC(=O)N[C@@H](CO)C(=O)N[C@@H](CCC(=O)O)C(=O)N[C@H](C(=O)N[C@@H](Cc1ccc(O)cc1)C(N)=O)[C@@H](C)O)C(C)C)[C@@H](C)O, also called compound 30)
1.1 | 0.087 | 0.082 | {C20 diacid-γGlu}-KCNTATCATQRLAEFLRHSSPNFGAIPSSTNVGSNTP-NH2 (disulfide 2-7; SMILES CC[C@H](C)[C@H](NC(=O)[C@H](C)NC(=O)CNC(=O)[C@H](Cc1ccccc1)NC(=O)[C@H](CC(N)=O)NC(=O)[C@@H]1CCCN1C(=O)[C@H](CO)NC(=O)[C@H](CO)NC(=O)[C@H](Cc1c[nH]cn1)NC(=O)[C@H](CCCNC(=N)N)NC(=O)[C@H](CC(C)C)NC(=O)[C@H](Cc1ccccc1)NC(=O)[C@H](CCC(=O)O)NC(=O)[C@H](C)NC(=O)[C@H](CC(C)C)NC(=O)[C@H](CCCNC(=N)N)NC(=O)[C@H](CCC(N)=O)NC(=O)[C@@H](NC(=O)[C@H](C)NC(=O)[C@@H]1CSSC[C@H](NC(=O)[C@H](CCCCN)NC(=O)CC[C@H](NC(=O)CCCCCCCCCCCCCCCCCCC(=O)O)C(=O)O)C(=O)N[C@@H](CC(N)=O)C(=O)N[C@@H]([C@@H](C)O)C(=O)N[C@@H](C)C(=O)N[C@@H]([C@@H](C)O)C(=O)N1)[C@@H](C)O)C(=O)N1CCC[C@H]1C(=O)N[C@@H](CO)C(=O)N[C@@H](CO)C(=O)N[C@H](C(=O)N[C@@H](CC(N)=O)C(=O)N[C@H](C(=O)NCC(=O)N[C@@H](CO)C(=O)N[C@@H](CC(N)=O)C(=O)N[C@H](C(=O)N1CCC[C@H]1C(N)=O)[C@@H](C)O)C(C)C)[C@@H](C)O, also called compound 8)
6.6 | 0.327 | 0.05 | {C20 diacid-γGlu}-KCNTATCATQRLAEFLRHSSPNFGAIPSSTNVGPNTY-NH2 (disulfide 2-7; SMILES CC[C@H](C)[C@H](NC(=O)[C@H](C)NC(=O)CNC(=O)[C@H](Cc1ccccc1)NC(=O)[C@H](CC(N)=O)NC(=O)[C@@H]1CCCN1C(=O)[C@H](CO)NC(=O)[C@H](CO)NC(=O)[C@H](Cc1c[nH]cn1)NC(=O)[C@H](CCCNC(=N)N)NC(=O)[C@H](CC(C)C)NC(=O)[C@H](Cc1ccccc1)NC(=O)[C@H](CCC(=O)O)NC(=O)[C@H](C)NC(=O)[C@H](CC(C)C)NC(=O)[C@H](CCCNC(=N)N)NC(=O)[C@H](CCC(N)=O)NC(=O)[C@@H](NC(=O)[C@H](C)NC(=O)[C@@H]1CSSC[C@H](NC(=O)[C@H](CCCCN)NC(=O)CC[C@H](NC(=O)CCCCCCCCCCCCCCCCCCC(=O)O)C(=O)O)C(=O)N[C@@H](CC(N)=O)C(=O)N[C@@H]([C@@H](C)O)C(=O)N[C@@H](C)C(=O)N[C@@H]([C@@H](C)O)C(=O)N1)[C@@H](C)O)C(=O)N1CCC[C@H]1C(=O)N[C@@H](CO)C(=O)N[C@@H](CO)C(=O)N[C@H](C(=O)N[C@@H](CC(N)=O)C(=O)N[C@H](C(=O)NCC(=O)N1CCC[C@H]1C(=O)N[C@@H](CC(N)=O)C(=O)N[C@H](C(=O)N[C@@H](Cc1ccc(O)cc1)C(N)=O)[C@@H](C)O)C(C)C)[C@@H](C)O, also called compound 32)
